Experimental data taken from patent US20230134571A1 (INTERNATIONAL AIDS VACCINE INITIATIVE, published 2023).

Columns and labels:
Assay in all cases: cell-based or functional assay
[1] = molecular target: HIV Env, isolate Ce704810053_2B7 (HIV)
[2] = molecular target: HIV Env, isolate 1170887.08 (HIV)
[3] = molecular target: HIV Env, isolate 0041.v3.c18 (HIV)
[4] = molecular target: HIV Env, isolate CeCAP210_TA5 (HIV)
[5] = molecular target: HIV Env, isolate TRP363.2.00_10_3 (HIV)
HIV Env, isolate Du422.1 = HIV Env, isolate Du422.1 (HIV)
[6] = molecular target: HIV Env, isolate Ko426_T78_10 (HIV)
[7] = molecular target: HIV Env, isolate 19157834_V1 (HIV)
[8] = molecular target: HIV Env, isolate 19314479_A2_5 (HIV)
[9] = molecular target: HIV Env, isolate So405_T24_5 (HIV)
[10] = molecular target: HIV Env, isolate 20104663_E11_D2 (HIV)
[11] = molecular target: HIV Env, isolate 21197826_V1 (HIV)
[12] = molecular target: HIV Env, isolate CAP244.2.00.D3 (HIV)
[13] = molecular target: HIV Env, isolate CAP174.1.06_F3_1B (HIV)
[14] = molecular target: HIV Env, isolate 18814602_H8_F3 (HIV)
HIV Env, isolate 2969249 = HIV Env, isolate 2969249 (HIV)
[15] = molecular target: HIV Env, isolate 234-F1-16-57 (HIV)
[16] = molecular target: HIV Env, isolate ZM197M.PB7 (HIV)
[17] = molecular target: HIV Env, isolate Ce1172_H1 (HIV)
[18] = molecular target: HIV Env, isolate Ce703010054_2A2 (HIV)
[19] = molecular target: HIV Env, isolate 19252094_A5_G2 (HIV)
[20] = molecular target: HIV Env, isolate 933.v4.c4 (HIV)
[21] = molecular target: HIV Env, isolate CeCAP200_B8a (HIV)
[22] = molecular target: HIV Env, isolate CA392_H2_6 (HIV)
[23] = molecular target: HIV Env, isolate 21492713_B11_E3 (HIV)
[24] = molecular target: HIV Env, isolate CAP304.2.00_F6.6 (HIV)
[25] = molecular target: HIV Env, isolate 21502011_F12_E2 (HIV)
[26] = molecular target: HIV Env, isolate 722_G4_16 (HIV)
[27] = molecular target: HIV Env, isolate 569-F1_37_10 (HIV)
[28] = molecular target: HIV Env, isolate ZM214M.PL15 (HIV)
[29] = molecular target: HIV Env, isolate CAP225.1.06_A2_18 (HIV)
[30] = molecular target: HIV Env, isolate CeCAP177_1A3 (HIV)
[31] = molecular target: HIV Env, isolate 2865_A11.12 (HIV)
[32] = molecular target: HIV Env, isolate 21203310_G7_C3 (HIV)
[33] = molecular target: HIV Env, isolate CeCAP188_1_D1_14(Rev-) (HIV)
[34] = molecular target: HIV Env, isolate 6146.v7.c23 (HIV)

B1: ePGDM9 (antibody, V domains shown)
VH: QAQLVQSGPEVRKPGTSVKVSCKNPGNTLTTYDLHWVRQVPGQGLQWMGWISHEGDKKVIVERFKAKVTIDWDRSTNTAYLQLSGLTSEDTAVYYCAKGSKHRLRDYALYDEDGALNWAVDVDYLANLEFWGQGTAVTVSS
VL: DIVLTQSPLSLSVTPGESASISCKSSQSLIHGDRNNYLAWYVQKPGRSPQLLIDLASERASGVPDRFSGSGSRKDFTLKISRVETEDVGTYYCMQGRESPWTFGQGTKVDIK
[1]
  IC50: 0.003 µg/mL
  IC80: 0.007 µg/mL
[2]
  IC50: 0.008 µg/mL
  IC80: 0.056 µg/mL
[3]
  IC50: < 0.0006 µg/mL
  IC80: 0.001 µg/mL
[4]
  IC50: 0.009 µg/mL
  IC80: 0.073 µg/mL
[5]
  IC50: 1.81 µg/mL
  IC80: > 50 µg/mL
HIV Env, isolate Du422.1
  IC50: > 50 µg/mL
  IC80: > 50 µg/mL
[6]
  IC50: > 50 µg/mL
  IC80: > 50 µg/mL
[7]
  IC50: 31.7 µg/mL
  IC80: > 50 µg/mL
[8]
  IC50: < 0.0006 µg/mL
  IC80: 0.001 µg/mL
[9]
  IC50: 14.3 µg/mL
  IC80: > 50 µg/mL
[10]
  IC50: < 0.0006 µg/mL
  IC80: 0.001 µg/mL
[11]
  IC50: 12.7 µg/mL
  IC80: 34.6 µg/mL
[12]
  IC50: 2.87 µg/mL
  IC80: 19.9 µg/mL
[13]
  IC50: 12.6 µg/mL
  IC80: > 50 µg/mL
[14]
  IC50: < 0.0006 µg/mL
  IC80: 0.002 µg/mL
HIV Env, isolate 2969249
  IC50: > 50 µg/mL
  IC80: > 50 µg/mL
[15]
  IC50: < 0.0006 µg/mL
  IC80: 0.002 µg/mL
[16]
  IC50: 0.017 µg/mL
  IC80: 0.05 µg/mL
[17]
  IC50: 0.007 µg/mL
  IC80: 0.02 µg/mL
[18]
  IC50: 0.005 µg/mL
  IC80: 0.027 µg/mL
[19]
  IC50: 0.001 µg/mL
  IC80: 0.003 µg/mL
[20]
  IC50: > 50 µg/mL
  IC80: > 50 µg/mL
[21]
  IC50: 0.003 µg/mL
  IC80: 0.022 µg/mL
[22]
  IC50: 0.032 µg/mL
  IC80: 0.129 µg/mL
[23]
  IC50: > 50 µg/mL
  IC80: > 50 µg/mL
[24]
  IC50: 0.002 µg/mL
  IC80: 0.013 µg/mL
[25]
  IC50: > 50 µg/mL
  IC80: > 50 µg/mL
[26]
  IC50: 0.198 µg/mL
  IC80: 0.585 µg/mL
[27]
  IC50: > 50 µg/mL
  IC80: > 50 µg/mL
[28]
  IC50: > 50 µg/mL
  IC80: > 50 µg/mL
[29]
  IC50: 0.025 µg/mL
  IC80: 0.167 µg/mL
[30]
  IC50: 0.153 µg/mL
  IC80: 1.06 µg/mL
[31]
  IC50: 0.071 µg/mL
  IC80: 0.258 µg/mL
[32]
  IC50: 9.94 µg/mL
  IC80: > 50 µg/mL
[33]
  IC50: > 50 µg/mL
  IC80: > 50 µg/mL
[34]
  IC50: 0.019 µg/mL
  IC80: 0.249 µg/mL
